Results on one molecule are retold here after US20160340420A1 (Novartis, published 2016).

The target of assay [1] is T1, biotinylated VEGF (human, UniProt P15692-4 27-191, limits assumed, biotinylated (sites not given)).
T1 construct: The ELISA paragraph says only 'biotinylated VEGF'; also called human vascular endothelial growth factor A; VEGF-A
Nature of the assay: competition ELISA with VEGFR2/Fc for biotinylated VEGF; 6% 1008, 9% sucrose, 20 mM citrate, 0.1% PS80, pH 6.25; 25 C, 26 weeks. The protocol:
(§1) The competition ELISA was used for potency testing.
(§2) The samples were stored at 2-8° C., 25° C., 40° C. and light cabinet (LC); they also went through three cycles of freeze-thaw (FT). The samples were pulled according to the schedule shown in Table 30, and analyzed by various analytical methods.
Background: An ELISA detects its analyte on a solid surface through an enzyme-linked reagent.

For assay [2], the target named is T1, biotinylated VEGF. Description: competition ELISA with VEGFR2/Fc for biotinylated VEGF; 6% 1008, 9% sucrose, 20 mM citrate, 0.1% PS80, pH 6.25; 2-8 C, 12 weeks. As for the experimental part: as §1, §2
Assay [3] concerns the target T1, biotinylated VEGF. Description: competition ELISA with VEGFR2/Fc for biotinylated VEGF; control formulation (60 mg/ml 1008, 20 mM citrate, 0.001% PS20, pH 6.25), 5 weeks at 40 C. As for the experimental part:
as §1
The control formulation was filtered through 0.2 um syringe filter and stored at 40° C., ambient room temperature, and refrigerator. The samples were pulled at 0, 2 and 5 weeks for 40° C. samples, and 26 weeks for samples stored at ambient room temperature and refrigerator. The selected stability samples were tested for pH, osmolality, content by A280, SEC, IEX CGE and ELISA.

In assay [4] the target is T1, biotinylated VEGF. Nature of the assay: competition ELISA with VEGFR2/Fc for biotinylated VEGF; 6% 1008, 9% sucrose, 20 mM citrate, 0.1% PS80, pH 6.25; 25 C, 8 weeks. The protocol:
as §1, §2

Assay [5] deals with T1, biotinylated VEGF. Description: competition ELISA with VEGFR2/Fc for biotinylated VEGF; 6% 1008, 9% sucrose, 20 mM citrate, 0.1% PS80, pH 6.25; 40 C, 4 weeks. As for the experimental part: as §1, §2
The target in assay [6] is T1, biotinylated VEGF. Nature of the assay: competition ELISA with VEGFR2/Fc for biotinylated VEGF; 6% 1008, 9% sucrose, 20 mM citrate, 0.1% PS80, pH 6.25; 2-8 C, 0 weeks. As for the experimental part: as §1, §2
The target in assay [7] is T1, biotinylated VEGF. Nature of the assay: competition ELISA with VEGFR2/Fc for biotinylated VEGF; 6% 1008, 9% sucrose, 20 mM citrate, 0.1% PS80, pH 6.25; 2-8 C, 8 weeks. The protocol:
as §1, §2

Assay [8] addresses T1, biotinylated VEGF. Nature of the assay: competition ELISA with VEGFR2/Fc for biotinylated VEGF; 6% 1008, 9% sucrose, 20 mM citrate, 0.1% PS80, pH 6.25; 2-8 C, 26 weeks. As for the experimental part:
as §1, §2

The target of assay [9] is T1, biotinylated VEGF. Description: competition ELISA with VEGFR2/Fc for biotinylated VEGF; 6% 1008, 9% sucrose, 20 mM citrate, 0.1% PS80, pH 6.25; 25 C, 12 weeks. The protocol: as §1, §2
The target in assay [10] is T1, biotinylated VEGF. Nature of the assay: competition ELISA with VEGFR2/Fc for biotinylated VEGF; 6% 1008, 9% sucrose, 20 mM citrate, 0.1% PS80, pH 6.25; 40 C column, 0 weeks (initial). The protocol: as §1, §2

T1 sequence (P15692 other isoform, or with tags, fused parts or gaps limits assumed): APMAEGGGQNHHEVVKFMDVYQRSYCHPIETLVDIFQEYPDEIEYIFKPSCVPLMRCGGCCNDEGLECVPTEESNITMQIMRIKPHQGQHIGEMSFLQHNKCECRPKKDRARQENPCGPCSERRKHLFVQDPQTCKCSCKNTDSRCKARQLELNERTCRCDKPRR

B1: 1008 antibody (scFv)
scFv: MEIVMTQSPSTLSASVGDRVIITCQASEIIHSWLAWYQQKPGKAPKLLIYLASTLASGVPSRFSGSGSGAEFTLTISSLQPDDFATYYCQNVYLASTNGANFGQGTKLTVLGGGGGSGGGGSGGGGSGGGGSEVQLVESGGGLVQPGGSLRLSCTASGFSLTDYYYMTWVRQAPGKGLEWVGFIDPDDDPYYATWAKGRFTISRDNSKNTLYLQMNSLRAEDTAVYYCAGGDHNSGWGLDIWGQGTLVTVSS
notes: also called anti-VEGF antibody
B1: the “ELISA (relative potency against 1008 reference standard)” value with biotinylated VEGF [1] was 1.1 ratio to 1008 reference standard; in the assay with biotinylated VEGF [2] it was 0.97 ratio to 1008 reference standard; with biotinylated VEGF [3], 1 ratio to 1008 reference standard; in the assay with biotinylated VEGF [4], 1.1 ratio to 1008 reference standard; with biotinylated VEGF [5], 0.87 ratio to 1008 reference standard; with biotinylated VEGF [6], 0.86 ratio to 1008 reference standard. Also, the “ELISA (relative potency against 1008 reference standard)” value was 1.2 ratio to 1008 reference standard with biotinylated VEGF [7], 1.1 ratio to 1008 reference standard with biotinylated VEGF [8], 0.92 ratio to 1008 reference standard with biotinylated VEGF [9] and 0.86 ratio to 1008 reference standard in the assay with biotinylated VEGF [10].
